± gives the uncertainty stated by the source.
Assay: self-splicing fitness, log relative to wild type (ln ratio); higher = more splicing; Tetrahymena group I intron in knt gene, E. coli kanamycin selection, DiMSum; sequences stand for … in CUCUCU…GGAGGGAAAAGUUAUCAGGCAUGCACCUGGUAGCUAGUCUUUAAACCAAUAGAUUGCAUCGGUUUAAAAGGCAAGACCGUCAAAUUGCGGGAAAGGGGUCAACAGCCGUUCAGUACCAAGUCUCAGGGGAAACUUUGAGAUGGCCUUGCAAAGGGUAUGGUAAUAAGCUGACGGACAUGGUCCUAACCACGCAGCCAAGUCCUAAGUCAACAGAUCUUCUGUUGAUAUGGAUGCAGUUCACAGACUAAAUGUCGGUCGGGGAAGAUGUAUUCUUCUCAUAAGAUAUAGUCGGACCUCUCCUUAAUGGGAGCUAGCGGAUGAAGUGAUGCAACACUGGAGCCGCUGGGAACUAAUUUGUAUGCGAAAGUAUAUUGAUUAGUUUUGGAGUACUCGUGGUCG
Summary of the method: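 Six replicate transformations of E. coli BL21(DE3) with a pET-22b(+) library were grown overnight at 37°C or 30°C. The library randomised all eight P1ex-region intron nucleotides, the intron lying in the knt kanamycin-resistance gene, and plates were LB agar with or without 25 μg/mL kanamycin plus 100 μg/mL carbenicillin, 50 μM IPTG and 0.2% rhamnose. Pooled colonies were amplicon-sequenced on an Illumina HiSeq 2500, and fitness is the DiMSum error-weighted combination of wild-type-normalised replicate fold changes, kanamycin versus none.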

| Sequence | self-splicing fitness (ln) (30 °C) | self-splicing fitness (ln) (37 °C) |
| --- | --- | --- |
| GGAUAGCAAUAUUACGGUAU | -1.48 ± 0.084 | -0.924 ± 0.09 |
| UUGAAGCAAUAUUACGAGCU | -1.76 ± 0.16 | -1.02 ± 0.19 |
| AAAGAGCAAUAUUACGUGAG | -2.95 ± 0.12 | -1.02 ± 0.12 |
| UGAGAGCAAUAUUACGGAUC | -1.94 ± 0.25 | -2.32 ± 0.49 |
| GUUGAGCAAUAUUACGGUAC | -3.45 ± 0.34 | -1.79 ± 0.38 |
| GGUUAGCAAUAUUACGGUGG |  | -1.57 ± 0.31 |
| CAUUAGCAAUAUUACGCAUG | -4.08 ± 0.46 | -3.16 ± 0.4 |
| AGACAGCAAUAUUACGGGUU | -1.96 ± 0.1 | -1.12 ± 0.12 |
| AUUCAGCAAUAUUACGAAUC | -2.12 ± 0.2 | -0.519 ± 0.32 |
| AAGCAGCAAUAUUACGCGCU | -2.53 ± 0.11 | -1.73 ± 0.11 |
| UGACAGCAAUAUUACGUUAC | -3.81 ± 0.35 | -3.32 ± 0.31 |
| CGUUAGCAAUAUUACGGUGG | -0.853 ± 0.056 | -0.115 ± 0.079 |
| CAGAAGCAAUAUUACGUGUA | -3.81 ± 0.17 | -1.25 ± 0.094 |
| GUAUAGCAAUAUUACGUAAU | -2.43 ± 0.14 | -0.699 ± 0.14 |
| UCUGAGCAAUAUUACGCAAA | -2.8 ± 0.33 | -1.27 ± 0.19 |
| UCGGAGCAAUAUUACGUGGC |  | -1.95 ± 0.38 |
| ACAGAGCAAUAUUACGGGCU | -3.02 ± 0.22 | -2.58 ± 0.2 |
| ACUUAGCAAUAUUACGAGUA | 0.101 ± 0.18 | -1.33 ± 0.21 |
| UCCGAGCAAUAUUACGGCCA | -0.297 ± 0.1 | -0.233 ± 0.12 |
| UGUAAGCAAUAUUACGGCAG | -0.191 ± 0.091 | 0.0264 ± 0.11 |
| CCGAAGCAAUAUUACGUUUC | -3.56 ± 0.24 | -2.84 ± 0.19 |
| AUAUAGCAAUAUUACGGGAU | -2.27 ± 0.16 | -0.966 ± 0.16 |
| UACGAGCAAUAUUACGGAGG | -2.06 ± 0.5 |  |
| CCAUAGCAAUAUUACGAGUG | -1.44 ± 0.092 | -0.172 ± 0.097 |
| CGAUAGCAAUAUUACGUUUU | -3.78 ± 0.19 | -2.76 ± 0.16 |

| Sequence | self-splicing fitness (ln) (30 °C) | self-splicing fitness (ln) (37 °C) |
| --- | --- | --- |
| UUUGAGCAAUAUUACGGUAA | -2.38 ± 0.29 | -1.94 ± 0.25 |
| CCGAAGCAAUAUUACGGCGA | -2.69 ± 0.3 | -2.53 ± 0.32 |
| UCAGAGCAAUAUUACGUUUA | -3.02 ± 0.25 | -2.6 ± 0.23 |
| AGGCAGCAAUAUUACGGAUA | -1.85 ± 0.22 | -2.11 ± 0.22 |
| CGACAGCAAUAUUACGAUUC | -3.6 ± 0.14 | -0.756 ± 0.08 |
| GGGUAGCAAUAUUACGGGGA | -3.52 ± 0.35 | -2.31 ± 0.38 |
| UGAGAGCAAUAUUACGAUUA | -0.816 ± 0.19 | -0.653 ± 0.3 |
| UGACAGCAAUAUUACGAUGU | -4.14 ± 0.17 | -2.28 ± 0.14 |
| CAUAAGCAAUAUUACGAUGG | 0.0378 ± 0.065 | -0.159 ± 0.093 |
| GUUUAGCAAUAUUACGAUGU | -1.16 ± 0.11 | -0.261 ± 0.14 |
| CUAGAGCAAUAUUACGGGAU | -2.94 ± 0.17 | -1.96 ± 0.23 |
| GGUAAGCAAUAUUACGCCAA | -2.07 ± 0.23 | -2.09 ± 0.24 |
| GUCCAGCAAUAUUACGCCUA | -0.215 ± 0.095 | -0.244 ± 0.093 |
| GUUCAGCAAUAUUACGAGGU | -2.25 ± 0.12 | -0.472 ± 0.13 |
| GGGCAGCAAUAUUACGUCGG | -0.72 ± 0.12 | 0.392 ± 0.15 |
| CCCGAGCAAUAUUACGAAUC | -1.59 ± 0.16 |  |
| GAUCAGCAAUAUUACGCGAG | -0.684 ± 0.07 | -1.15 ± 0.073 |
| CCACAGCAAUAUUACGCAAC | -2.45 ± 0.36 | -1.79 ± 0.33 |
| GCUGAGCAAUAUUACGAACG | -1.53 ± 0.18 | -1.12 ± 0.23 |
| GGGAAGCAAUAUUACGUGUA | -1.96 ± 0.14 | -0.669 ± 0.11 |
| GUAUAGCAAUAUUACGUCAU | -2.03 ± 0.17 | -0.747 ± 0.17 |
| AGGUAGCAAUAUUACGAUAU | -1.16 ± 0.014 | -0.423 ± 0.034 |
| AUACAGCAAUAUUACGGGGC | -2.65 ± 0.12 | -3.57 ± 0.2 |
| GUUCAGCAAUAUUACGGCUU | -0.546 ± 0.086 | 0.571 ± 0.12 |
